Experimental data from patent publication US20140302123A1.

Columns and labels:
[1] = target: T1, PTPN4-PDZ (residues G499-N604) (human), P29074; experiment: NMR titration (rounded value in the text)
T1 chain: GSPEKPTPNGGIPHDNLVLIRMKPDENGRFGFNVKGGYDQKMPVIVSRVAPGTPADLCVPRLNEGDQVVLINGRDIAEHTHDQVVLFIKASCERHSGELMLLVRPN

[2] = target: T1, PTPN4-PDZ (residues G499-N604) (human), …; experiment: NMR titration, 15N-labeled PTPN4-PDZ with unlabeled peptide

Binder SWESHKSGGETRL (modifications not checked) [Cyto13-att] has a Kd [1] of 160 µM and a Kd [2] of 157 µM.
